Experimental data reported in patent publication US20220143148A1, “COMPOSITIONS AND METHODS FOR MODULATING CGRP SIGNALING TO REGULATE INTESTINAL INNATE LYMPHOID CELLS” (The Broad Institute, Inc., priority 2019, published 2022).

Tested on: small intestinal immune cells
Assay: Droplet-based scRNA-seq of small intestinal immune cells (LP and PP), OVA vs PBS, clustering and differential expression
Type: in vivo, mouse
Conditions: PP, cluster ID 6
Source text: To comprehensively characterize small intestinal immune cells, Applicants generated scRNA-Seq profiles for 58,067 immune cells collected from lamina propria (LP) and Peyer's patch (PP) regions at steady state and after induction of a type 2 inflammatory reaction to ovalbumin (OVA) (Brandt et al., 2003) (FIGS. 1A and 8A). To ensure sufficient representation of rare cells, Applicants combined a normalization strategy—removing by flow sorting either a portion of IgD+ naïve B cells, which are the most abundant cell type in PPs, or all CD19+ and CD3+ T cells (FIG. 8B, Methods)—with profiling of a sufficiently large number of cells number (P>0.99 to recover at least 15 cells from each cluster, Methods) by massively parallel scRNA-seq (Haber et al., 2017) (Methods). Applicants obtained 36,797 and 21,270 high quality cells passing initial filtering (Methods) from PP and LP regions, respectively.
Overall, Applicants annotated 27 cell subsets across the two compartments, spanning T cells, B cells, ILCs, dendritic cells (DCs), myeloid cells and stromal cells, in frequencies ranging from 0.07% to 14%. Briefly, Applicants first partitioned the cells from the PP regions by unsupervised clustering (Methods) into 46 clusters, retained the 97% of cells that were robustly assigned cell identities in each cluster (Methods), assigned the cells from the LP regions to the 46 clusters using a classifier (Methods), and visualized the data with scvis (Ding et al., 2018), a deep generative model-based method (FIGS. 1B and 8C, Methods). Next, Applicants identified genes that were differentially expressed between the cells in each cluster and the remaining cells (Table 1, Methods), as well as between pairs of clusters (Table 2), to elucidate identities of similar cell types/states. Applicants excluded from downstream analysis clusters mostly consisting of contaminants from epithelium, likely doublets, or cells with a small number of Unique Molecular Identifiers (UMIs) (FIGS. 1C and 8D), or lacking distinct markers (Methods). Altogether, Applicants retained 27 clusters spanning 85% of the cells and each associated with distinct marker genes (FIG. 8E, Methods).
To induce allergic reaction to OVA, 6 to 7 weeks old mice were sensitized twice, two weeks apart, with 50 μg of OVA plus 1 mg of aluminum potassium sulfate adjuvant via intraperitoneal injection. Two weeks later, mice were orally administered with 50 mg of OVA on every other day for a total of five times. 1 μg of α-CGRP peptide was administered simultaneously when indicated. Mice were deprived of food for 3-4 hours in cages with wood chip bedding for limiting antigen degradation in the stomach before each intragastric challenge.
Isolation of cells from Peyer's patches (PPs). Peyer's patches (PPs) were carefully dissected from the small intestine under a stereo microscope using a fine scissor, pierced once with a fine forcep. Tissues were digested in freshly made digestion buffer (RPMI-1640 containing 100 μg/ml Liberase™ and 50 μg/ml DNase I at 37° C. on a roto-mixer. After 15 min, tissues were very gently mixed using a 1 ml pipette. The supernatant was collected and added to ice-cold MACS buffer (pH 7.4; PBS plus 2% FCS and 2 mM EDTA). Pre-warmed (37° C.) fresh digestion buffer was added to the remaining tissues. After rotation at 37° C. for 15 min, the mixture was vigorously mixed using a 1 ml pipette for 1 min. Supernatants from the two steps were combined and passed through 70 μm filters and stained for FACS (below).
Isolation of cells from the lamina propria (LP). The small intestines were opened longitudinally and washed in ice-cold PBS. For scRNA-seq, roughly 0.5 cm of fragments from each of the distal, middle and proximal regions without visible PPs were collected. Epithelial cells were dissociated by tissue rotation in pre-warmed (37° C.) PBS containing 10 mM EDTA at 37° C. for 15 min, followed by additional incubation on ice for 15 min. Tissues were then shaken vigorously. […]

B1: OVA (protein, UniProt P01012 2-386, looked up)
Ovalbumin: GSIGAASMEFCFDVFKELKVHHANENIFYCPIAIMSALAMVYLGAKDSTRTQINKVVRFDKLPGFGDSIEAQCGTSVNVHSSLRDILNQITKPNDVYSFSLASRLYAEERYPILPEYLQCVKELYRGGLEPINFQTAADQARELINSWVESQTNGIIRNVLQPSSVDSQTAMVLVNAIVFKGLWEKAFKDEDTQAMPFRVTEQESKPVQMMYQIGLFRVASMASEKMKILELPFASGTMSMLVLLPDEVSGLEQLESIINFEKLTEWTSSNVMEERKIKVYLPRMKMEEKYNLTSVLMAMGITDVFSSSANLSGISSAESLKISQAVHAAHAEINEAGREVVGSAEAGVDAASVSEEFRADHPFLFCIKHIATNAVLFFGRCVSP
5730508B09Rik percentage of expressing cells in OVA-treated group: 0.268
Ablim1 percentage of expressing cells in OVA-treated group: 0.403
Arid3a percentage of expressing cells in OVA-treated group: 0.212
Arl4a percentage of expressing cells in OVA-treated group: 0.228
Asph percentage of expressing cells in OVA-treated group: 0.377
Cdkn2d percentage of expressing cells in OVA-treated group: 0.747
Cfp percentage of expressing cells in OVA-treated group: 0.422
Ctsz percentage of expressing cells in OVA-treated group: 0.97
Fcer1g percentage of expressing cells in OVA-treated group: 0.94
Gadd45b percentage of expressing cells in OVA-treated group: 0.342
Gatad1 percentage of expressing cells in OVA-treated group: 0.34
Gnai2 percentage of expressing cells in OVA-treated group: 0.932
Grb2 percentage of expressing cells in OVA-treated group: 0.614
H2-DMa percentage of expressing cells in OVA-treated group: 0.878
Hnrnpa3 percentage of expressing cells in OVA-treated group: 0.851
Irf4 percentage of expressing cells in OVA-treated group: 0.256
Itgb7 percentage of expressing cells in OVA-treated group: 0.669
Klf3 percentage of expressing cells in OVA-treated group: 0.125
Klk1b27 percentage of expressing cells in OVA-treated group: 0.974
Lifr percentage of expressing cells in OVA-treated group: 0.595
Map3k1 percentage of expressing cells in OVA-treated group: 0.346
Mark3 percentage of expressing cells in OVA-treated group: 0.139
Net1 percentage of expressing cells in OVA-treated group: 0.53
Orai1 percentage of expressing cells in OVA-treated group: 0.274
Paqr5 percentage of expressing cells in OVA-treated group: 0.52
Pde4b percentage of expressing cells in OVA-treated group: 0.177
Pdia3 percentage of expressing cells in OVA-treated group: 0.844
Pink1 percentage of expressing cells in OVA-treated group: 0.282
Pten percentage of expressing cells in OVA-treated group: 0.429
Ptprcap percentage of expressing cells in OVA-treated group: 0.941
Rab7b percentage of expressing cells in OVA-treated group: 0.223
Rsrp1 percentage of expressing cells in OVA-treated group: 0.754
Sema4b percentage of expressing cells in OVA-treated group: 0.531
Sertad1 percentage of expressing cells in OVA-treated group: 0.12
Snrnp70 percentage of expressing cells in OVA-treated group: 0.43
Tmem50a percentage of expressing cells in OVA-treated group: 0.854
Tmem59 percentage of expressing cells in OVA-treated group: 0.833
Tmem86a percentage of expressing cells in OVA-treated group: 0.204
Tsix percentage of expressing cells in OVA-treated group: 0.23
Txndc5 percentage of expressing cells in OVA-treated group: 0.699
5730508B09Rik LN (average fold change) (OVA vs PBS): −0.218
Ablim1 LN (average fold change) (OVA vs PBS): −0.197
Arid3a LN (average fold change) (OVA vs PBS): −0.329
Arl4a LN (average fold change) (OVA vs PBS): −0.276
Asph LN (average fold change) (OVA vs PBS): −0.195
Cdkn2d LN (average fold change) (OVA vs PBS): 0.244
Cfp LN (average fold change) (OVA vs PBS): 0.312
Ctsz LN (average fold change) (OVA vs PBS): 0.156
Fcer1g LN (average fold change) (OVA vs PBS): 0.160
Gadd45b LN (average fold change) (OVA vs PBS): −0.220
Gatad1 LN (average fold change) (OVA vs PBS): −0.199
Gnai2 LN (average fold change) (OVA vs PBS): −0.175
Grb2 LN (average fold change) (OVA vs PBS): −0.222
H2-DMa LN (average fold change) (OVA vs PBS): 0.190
Hnrnpa3 LN (average fold change) (OVA vs PBS): 0.164
Irf4 LN (average fold change) (OVA vs PBS): −0.248
Itgb7 LN (average fold change) (OVA vs PBS): 0.238
Klf3 LN (average fold change) (OVA vs PBS): −0.428
Klk1b27 LN (average fold change) (OVA vs PBS): 0.170
Lifr LN (average fold change) (OVA vs PBS): 0.265
Map3k1 LN (average fold change) (OVA vs PBS): −0.227
Mark3 LN (average fold change) (OVA vs PBS): −0.383
Net1 LN (average fold change) (OVA vs PBS): 0.285
Orai1 LN (average fold change) (OVA vs PBS): −0.245
Paqr5 LN (average fold change) (OVA vs PBS): 0.279
Pde4b LN (average fold change) (OVA vs PBS): −0.282
Pdia3 LN (average fold change) (OVA vs PBS): 0.157
Pink1 LN (average fold change) (OVA vs PBS): −0.291
Pten LN (average fold change) (OVA vs PBS): −0.226
Ptprcap LN (average fold change) (OVA vs PBS): 0.159
Rab7b LN (average fold change) (OVA vs PBS): −0.285
Rsrp1 LN (average fold change) (OVA vs PBS): 0.195
Sema4b LN (average fold change) (OVA vs PBS): 0.221
Sertad1 LN (average fold change) (OVA vs PBS): −0.396
